Assay results reported in the supplement of paper PMC9170038.

Test system: MS2 coat protein
Experiment: apparent KD of MS2 coat protein; designed switch direction (-1 OFF switch, 1 ON switch): 1; higher = weaker reporter binding
In short: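 Each step of the titration lasted 0.8–1.5 h at the lowest concentration and 10–20 min at the highest. The protein, SNAP-549-labelled MS2 coat protein, went from 0.7 or 1.5 nM doubling to 3 µM over RNA switches transcribed on Illumina chips by stalled E. coli RNA polymerase. Normalised cluster fluorescence was curve-fitted, and the per-design median over clusters is given as apparent KD.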

[1] = Eterna round: R95, input ligand: FMN 200 uM
[2] = Eterna round: R95, input ligand: microRNA oligo, concentration not stated
[3] = Eterna round: R95, input ligand: none
[4] = input ligand: microRNA oligo, concentration not stated

| Sequence | apparent KD of MS2 coat protein [1] | apparent KD of MS2 coat protein [2] | apparent KD of MS2 coat protein [3] | apparent KD of MS2 coat protein (input ligand: FMN 200 uM) | apparent KD of MS2 coat protein [4] | apparent KD of MS2 coat protein (input ligand: none) |
| --- | --- | --- | --- | --- | --- | --- |
| AAAAGACAUGAGGAUCACCCAUGUAUGAAAAGUACAGGAUAUCACGAGCUAAAGUGCGAGUGAGAAGGGUGAAAAU [Araceesge] (puzzle: Same State 1) | 60.9 nM | 41.9 nM | 37.1 nM | – | – | – |
| UAUGAACAUGAGGAUCACCCAUGUGGUACGAUCACAGGAUAUCACCUCGGACGUGCGAUGUGAGAAGGGUGAUGGU [Same State 1 - Mod of Vinnie Anrelari v.1] (puzzle: Same State 1) | – | 63.1 nM | – | – | – | – |
| GUACAACAUGAGGAUCACCCAUGUAUAUAUAUACGAGGAUAUGCAUGUACGAAAGUAUAUGCAGAAGGCGUUGUAC [Pin2Pin] (puzzle: Same State 1) | – | 75.4 nM | – | – | – | – |
| GGUCCAGCCUGAGCUGGACAAAAGCAUGUACAUGAGGAUCACCCAUGUUCAUGUACAAGCUUUUUGCUCGUCUUGCA [salish99_208a_r3_110x] (puzzle: Sensor for hsa-mir-208a) | 639 nM | 15.5 nM | 706 nM | – | – | – |
| AGAGGAGGAGCAGGAUAUUCGAAGAAGGACGUGGAAGAAGGGUUCAUGCGAUGACAUGAGGAUCACCCAUGUACCGCGCGAGGA [AK SSNG1-V2-12] (Eterna round: R96, puzzle: Same State NG 1) | – | – | – | 63.4 nM | 42.6 nM | 69 nM |
| UGGAUCUAGGCUUGCCUGGGUCCAUGUUGACAUGAGGAUCACCCAUGUGUAUUUUUUUAGCUUUUUGUUUGUCAACA [JL A Humble Attempt mod 5] (puzzle: Sensor for hsa-mir-208a) | 39 nM | 15.1 nM | 41.1 nM | – | – | – |
| UGGCUCAGACGAGGAUAUGAUCAUGGCGCUUCGGCGCAUACAUGAGGAUCACCCAUGUAGGGUGAUCAGAAGGCGUCUGAGCCA [SSNG2/8-A2] (Eterna round: R96, puzzle: Same State NG 2) | – | – | – | 55.8 nM | 413 nM | 460 nM |
| GUUACAUGAGGAUCACCCAUGUAUGUGUGGGAGUAAGUGUCUUAGGAUAUCUAUCAUUUAAAUUAAGAGAAGGAAGAUUGUUGU [JMF's solution 12] (Eterna round: R96, puzzle: Same State NG 3) | – | – | – | 126 nM | 73.5 nM | 118 nM |
| AUUAUUUAUGCAGGAUAUGAUUAACAUGAGGAUCACCCAUGUGGUGUUGUGAGUAAGGAGAGUGAUCAGAAGGGCAUUUUUUUG [JMF's solution 57] (Eterna round: R96, puzzle: Same State NG 2) | – | – | – | 666 nM | 451 nM | 350 nM |
| GAAGGAUGAGCGUAGGAUAUAGGAGGAGUGACAUGAGGAUCACCCAUGUGGUAGGAGGGAGGGUACUAGAAGGACGAGGAAGAGG [JR_SS2_Sub069] (puzzle: Same State 2) | 216 nM | 106 nM | 161 nM | – | – | – |
| UAGAGAGGAAGCGAGGAUAUCGUGGGAGGAACAUGAGGAUCACCCAUGUGUGAUGUUGAGAGGGACGAGAAGGCGCGGGAAAGUA [JR_SS2_Sub079] (puzzle: Same State 2) | 171 nM | 194 nM | 277 nM | – | – | – |
| AGAUCAUGACGAGGAUAUGGUACAUGAGGAUCACCCAUGUAUGUACUAUAACCCGUAUGAGGAAUCCAGAAGGCGUCGUGGUCA [JL SSNG2 1.17] (Eterna round: R96, puzzle: Same State NG 2) | – | – | – | 23.8 nM | 71.8 nM | 85.9 nM |
| GCGAAAGCGGUAGGAUAUCUAGGAUAUGGGAAAGACUAAGUCUGUAGGUCACCUAACCCAGAAGGAGAGAAGGACAGGGAAACC [pwkr ssNG2 2FMN + F9.34] (Eterna round: R96, puzzle: Same State NG 2) | – | – | – | 38.8 nM | 28.9 nM | 22.1 nM |
| AUAAAACAUGAGGAUCACCCAUGUCAACAAAGUCGAGGAUAUGGGCAAAUAAAAUAAGAACCAGAAGGCGAAUAAC [salish99_SS1_r3_003] (puzzle: Same State 1) | – | 339 nM | – | – | – | – |
| UCCUCAGUUUCACAGGAUAUGCGCUGAGUCACAUGAGGAUCACCCAUGUAGACGGAAAAUGUCGGGCAGAAGGGUGAGGCAUAAA [Diretibe] (puzzle: Same State 2) | 57.2 nM | 117 nM | 4570 nM | – | – | – |
| AAGUUACUAUCUCAGGAUAUCAUGUCAAAGACAUGAGGAUCACCCAUGUACCAGGAAACUGGUUAUGAGAAGGGAGAUAGUAACU [Mat - Same State 2 - Mod - D54] (puzzle: Same State 2) | 156 nM | 204 nM | 819 nM | – | – | – |
| AAGAAACAUGAGGAUCACCCAUGUGAUAAUAUGGGAGGAUAUACAAAGACGAAAGUCGAAGUAGAAGGCCUAUGAA [Garnet 43] (Eterna round: R96, puzzle: Same State 1) | – | – | – | 46.4 nM | 50.9 nM | 68.7 nM |
| GUGGUGUAGAUACAGGAUAUGUUGCUCGUAACAUGAGGAUCACCCAUGUAUAUAUGAGAUUAAAUGCAGAAGGGUGCACACCACG [Mat - Same State 2 - Mod of UCT - D76] (puzzle: Same State 2) | 24.6 nM | 18.9 nM | 13.3 nM | – | – | – |
| UACAAUCUAUCUGAGGAUAUCAUGAUUUAAACAUGAGGAUCACCCAUGUGCAGGAAAACUGCAUAUGAGAAGGCAGAUAGAUUGU [salish99_ss2_r3_063] (puzzle: Same State 2) | 135 nM | 297 nM | 241 nM | – | – | – |
| UAAAUAAAGUAAGGAUAUACAUGAGGAUUUCUCGUAGAAGGUACAAGACAUGAGGAUCACCCAUGUAUCGCUCCGUAGAGCGUA [Mat - Same State NG 1 - JL mod - D21] (Eterna round: R96, puzzle: Same State NG 1) | – | – | – | – | 57.7 nM | – |
| GGAGCCGGCACUGAGGAUAUUCAUAUUAAAACAUGAGGAUCACCCAUGUAGGCCAGAAGGCCUUGGGAGAAGGCGGGUCGACUCG [Diqureveri - 1] (puzzle: Same State 2) | 29.7 nM | 523 nM | 371 nM | – | – | – |
| AAAAGUUGCGGGCAGGAUAUGUAUUAAAAUACAUGAGGAUCACCCAUGUGCGGGUAUAACACCCGACAGAAGGGCCAAACGCGAC [Mat - Same State 2 - Mod of UCT - D96] (puzzle: Same State 2) | 27.4 nM | 178 nM | 333 nM | – | – | – |
